Substitutions are numbered along the chain they refer to. Names may count otherwise.
B1: CagFbFP-Q148N (domain or fragment)
chain: MASGMIVTDAGADQPIVFVNRAFSTITGYAPNEVLGRNARFLQGPQTDAATVARLREAIAAARPIQERILNYRKDGQPFWNQLSISPVRDETGNVVAFVGVNTDVTA
B2: CagFbFP-Q148E (domain or fragment)
chain: B1 chain with N102E
B3: CagFbFP-Q148D (domain or fragment)
chain: B1 chain with N102D
B4: CagFbFP-Q148R (domain or fragment)
chain: B1 chain with N102R
B5: CagFbFP-Q148H (domain or fragment)
chain: B1 chain with N102H
B6: CagFbFP-Q148K (domain or fragment)
chain: B1 chain with N102K

Target: the molecule itself
Experiment: crystal structure

Binding result, binds:
B1
B2
B3
B4
B5
B6

Reference: article doi:10.1101/2021.02.05.429969 (bioRxiv, 2021)
